Measurements published in the supplement of paper PMC11246515.
± gives the standard deviation of the averaged measurements.

Assay: total protein half-life in vivo (active degradation + dilution); higher = more stable protein
[1] = E. coli NCM3722 delta-clpP delta-lon delta-hslV, growth: N-lim chemostat, doubling time 6 h
[2] = E. coli NCM3722 delta-clpP, growth: N-lim chemostat, doubling time 6 h
[3] = E. coli NCM3722 delta-hslV, growth: N-lim chemostat, doubling time 6 h
[4] = E. coli NCM3722 delta-lon, growth: N-lim chemostat, doubling time 6 h
[5] = E. coli NCM3722 delta-smpB, growth: N-lim chemostat, doubling time 6 h
[6] = wild type E. coli NCM3722, growth: C-lim chemostat, doubling time 3 h
[7] = wild type E. coli NCM3722, growth: C-lim chemostat, doubling time 6 h
[8] = wild type E. coli NCM3722, growth: C-lim chemostat, doubling time 12 h
[9] = wild type E. coli NCM3722, growth: N-lim chemostat, doubling time 6 h
[10] = wild type E. coli NCM3722, growth: N-lim chemostat, doubling time 12 h
[11] = wild type E. coli NCM3722, growth: P-lim chemostat, doubling time 6 h
[12] = wild type E. coli NCM3722, growth: P-lim chemostat, doubling time 12 h

| Sequence | total protein half-life in vivo [1] [h] | total protein half-life in vivo [2] [h] | total protein half-life in vivo [3] [h] | total protein half-life in vivo [4] [h] | total protein half-life in vivo [5] [h] | total protein half-life in vivo [6] [h] | total protein half-life in vivo [7] [h] | total protein half-life in vivo [8] [h] | total protein half-life in vivo [9] [h] | total protein half-life in vivo [10] [h] | total protein half-life in vivo [11] [h] | total protein half-life in vivo [12] [h] |
| --- | --- | --- | --- | --- | --- | --- | --- | --- | --- | --- | --- | --- |
| MSQRGLEALLRPKSIAVIGASMKPNRAGYLMMRNLLAGGFNGPVLPVTPAWKAVLGVLAWPDIASLPFTPDLAVLCTNASRNLALLEELGEKGCKTCIILSAPASQHEDLRACALRHNMRLLGPNSLGLLAPWQGLNASFSPVPIKRGKLAFISQSAAVSNTILDWAQQRKMGFSYFIALGDSLDIDVDELLDYLARDSKTSAILLYLEQLSDARRFVSAARSASRNKPILVIKSGRSPAAQRLLNTTAGMDPAWDAAIQRAGLLRVQDTHELFSAVETLSHMRPLRGDRLMIISNGAAPAALALDALWSRNGKLATLSEETCQKLRDALPEHVAISNPLDLRDDASSEHYIKTLDILLHSQDFDALMVIHSPSAAAPATESAQVLIEAVKHHPRSKYVSLLTNWCGEHSSQEARRLFSEAGLPTYRTPEGTITAFMHMVEYRRNQKQLRETPALPSNLTSNTAEAHLLLQQAIAEGATSLDTHEVQPILQAYGMNTLPTWIASDSTEAVHIAEQIGYPVALKLRSPDIPHKSEVQGVMLYLRTANEVQQAANAIFDRVKMAWPQARVHGLLVQSMANRAGAQELRVVVEHDPVFGPLIMLGEGGVEWRPEDQAVVALPPLNMNLARYLVIQGIKSKKIRARSALRPLDVAGLSQLLVQVSNLIVDCPEIQRLDIHPLLASGSEFTALDVTLDISPFEGDNESRLAVRPYPHQLEEWVELKNGERCLFRPILPEDEPQLQQFISRVTKEDLYYRYFSEINEFTHEDLANMTQIDYDREMAFVAVRRIDQTEEILGVTRAISDPDNIDAEFAVLVRSDLKGLGLGRRLMEKLITYTRDHGLQRLNGITMPNNRGMVALARKLGFNVDIQLEEGIVGLTLNLAQREES | 5.32 ± 0.66 | 5.3 ± 0.37 | 4.54 ± 0.15 | 4.46 ± 0.67 | 4.92 ± 0.72 | 3.28 ± 0.35 | 6.133 ± 0.015 | 12.2 ± 0.95 | 5 ± 0.23 | 7.46 ± 0.52 | 6.35 ± 0.48 | 14.1 ± 0.23 |
| MSQTSTLKGQCIAEFLGTGLLIFFGVGCVAALKVAGASFGQWEISVIWGLGVAMAIYLTAGVSGAHLNPAVTIALWLFACFDKRKVIPFIVSQVAGAFCAAALVYGLYYNLFFDFEQTHHIVRGSVESVDLAGTFSTYPNPHINFVQAFAVEMVITAILMGLILALTDDGNGVPRGPLAPLLIGLLIAVIGASMGPLTGFAMNPARDFGPKVFAWLAGWGNVAFTGGRDIPYFLVPLFGPIVGAIVGAFAYRKLIGRHLPCDICVVEEKETTTPSEQKASL [P0AER0] |  |  |  |  |  | 2.07 | 4.17 | 6.363 ± 0.04 |  |  |  |  |
| MSQVQSGILPEHCRAAIWIEANVKGEVDALRAASKTFADKLATFEAKFPDAHLGAVVAFGNNTWRALSGGVGAEELKDFPGYGKGLAPTTQFDVLIHILSLRHDVNFSVAQAAMEAFGDCIEVKEEIHGFRWVEERDLSGFVDGTENPAGEETRREVAVIKDGVDAGGSYVFVQRWEHNLKQLNRMSVHDQEMVIGRTKEANEEIDGDERPETSHLTRVDLKEDGKGLKIVRQSLPYGTASGTHGLYFCAYCARLHNIEQQLLSMFGDTDGKRDAMLRFTKPVTGGYYFAPSLDKLMAL | 3.34 ± 0.63 | 3.25 ± 0.84 | 3.36 ± 0.15 | 3.73 ± 0.79 | 3.14 ± 0.27 | 2.96 ± 0.12 |  | 8.52 ± 2.9 | 3.18 ± 0.17 | 4.17 ± 0.094 | 5.09 ± 0.12 | 9.66 ± 0.84 |
| MSQVSTEFIPTRIAILTVSNRRGEEDDTSGHYLRDSAQEAGHHVVDKAIVKENRYAIRAQVSAWIASDDVQVVLITGGTGLTEGDQAPEALLPLFDREVEGFGEVFRMLSFEEIGTSTLQSRAVAGVANKTLIFAMPGSTKACRTAWENIIAPQLDARTRPCNFHPHLKK [P0AEZ9] | 5.88 ± 0.086 | 5.83 ± 0.34 | 5.23 ± 0.43 | 5.076 ± 0.019 | 4.7 ± 0.21 | 3.17 ± 0.28 | 5.99 ± 0.53 | 10.3 ± 1.4 | 4.7 ± 0.53 | 8.21 ± 0.61 | 6.07 ± 0.18 | 13.4 ± 0.48 |
| MSRFIPIELHHASRLLNHGPTVLITSFDEQSQRRNIMAAAWSMPVEFEPPRVAIVVDKSTWTRELIEHNGKFGIVIPGVAATNWTWAVGSVSGRDEDKFNCYGIPVVRGPVFGLPLVEEKCLAWMECRLLPATSAQEEYDTLFGEVVSAAADARVFVEGRWQFDDDKLNTLHHLGAGTFVTSGKRVTAG | 5.07 ± 0.36 | 4.49 ± 0.06 | 4.12 ± 0.3 | 4.25 ± 0.39 | 4.19 ± 0.066 | 2.96 ± 0.065 | 4.15 ± 0.89 | 9.97 ± 0.71 | 4.27 ± 0.46 | 6.92 ± 0.15 | 5.45 ± 0.67 | 10.4 ± 0.57 |
